Results on 6 molecules are retold here after patent US20050238685A1, “Method of binding a compound to a surface” (priority 2002, published 2005).

Read-outs that look alike come from different tables or passages of the source.

The nature of data set [1]: Esterase, lipase and trypsin on SC3-coated oil droplets, spectrophotometric substrate conversion. It counts as biochemical. How it is done: The sheets with and without immobilized enzyme were used in a chromogenic assay. A 1.5 ml cuvette was filled with 1 ml of a 5 mM 4-nitrophenyl acetate solution (esterase substrate), 5 mM Na-benzoyl-DL-arginine-p-nitroanilide (trypsin substrate), or 5 mM 1,2-di-O-decanoyl-rac-glycero-3-glutaric acid-resorufin labeled in the appropriate buffers. The cuvette was placed in the spectrophotometer and the reaction was started by placing the hydrophobin-coated sheets with or without immobilized enzyme in the cuvette parallel to the light beam. The light absorbance at the appropriate wavelength was followed in time. After one hour of incubation, the sheets were taken from the cuvette and the reaction in the cuvette was followed for an additional 24 hours. The sheets were washed with water and were transferred to a new cuvette with fresh substrate and the reaction was followed again. […] 400 μl of a 100 μg/ml solution of the mentioned enzymes was added to a 1 mm cuvette and a circular dichroism spectrum was recorded between 190 and 250 nm. To this solution, increasing concentrations of pure colloidal TEFLON™ or hydrophobin-coated TEFLON™ was added and changes were followed by recording CD-spectra. […] When TEFLON™ coated with hydrophobin is added to the enzyme solutions, the changes in CD signal (after correction for the hydrophobin signal) are less pronounced. […]

Data set [2] is classed as biochemical. The method, then:
The sheets were removed from the hydrophobin solution and were immediately washed with large amounts of water to remove any unbound hydrophobin (5×50 ml water for five minutes); these coatings are referred to as the α-helix state. Part of the sheets were boiled in a 2% SDS solution for ten minutes, after which the sheets were extensively washed with water; these coatings are referred to as the β-sheet state. The colloidal TEFLON™ was collected by gentle centrifugation (two minutes, 2000 rpm), the supernatant was removed and the TEFLON™ pellet was resuspended in 2 ml pure water followed by centrifugation. The TEFLON™ pellet was washed five times with water to remove all unbound hydrophobin.
The bare and hydrophobin-coated sheets (α-helix state and β-sheet state) were incubated in 2 ml of enzyme solution in 3 ml glass vials at 25° C. for two hours. The used enzyme solutions were 100 μg/ml of 60 kD esterase (porcine liver), 40 kD lipase (wheat germ), or 25 kD trypsin (bovine pancreas). The sheets were washed extensively with water to remove any unbound enzyme.
The sheets with and without immobilized enzyme were used in a chromogenic assay. A 1.5 ml cuvette was filled with 1 ml of a 5 mM 4-nitrophenyl acetate solution (esterase substrate), 5 mM Na-benzoyl-DL-arginine-p-nitroanilide (trypsin substrate), or 5 mM 1,2-di-O-decanoyl-rac-glycero-3-glutaric acid-resorufin labeled in the appropriate buffers. The cuvette was placed in the spectrophotometer and the reaction was started by placing the hydrophobin-coated sheets with or without immobilized enzyme in the cuvette parallel to the light beam. The light absorbance at the appropriate wavelength was followed in time. After one hour of incubation, the sheets were taken from the cuvette and the reaction in the cuvette was followed for an additional 24 hours. The sheets were washed with water and were transferred to a new cuvette with fresh substrate and the reaction was followed again. […] 400 μl of a 100 μg/ml solution of the mentioned enzymes was added to a 1 mm cuvette and a circular dichroism spectrum was recorded between 190 and 250 nm. To this solution, increasing concentrations of pure colloidal TEFLON™ or hydrophobin-coated TEFLON™ was added and changes were followed by recording CD-spectra. […] When TEFLON™ coated with hydrophobin is added to the enzyme solutions, the changes in CD signal (after correction for the hydrophobin signal) are less pronounced. […] Furthermore, oil droplets were coated with hydrophobin. Coating of oil droplets was achieved by emulsifying 100 μl of oil (mineral oil or paraffin oil) in 3 ml of water by sonication and adding 3 ml of an aqueous solution of hydrophobin (200 μg/ml). Alternatively, the oil was directly emulsified in the hydrophobin solution and 3 ml was added. […]

Data set [3] in a line: Circular dichroism of enzymes on binding to bare or hydrophobin-coated colloidal TEFLON. It counts as physicochemical. The following applies: bare colloidal TEFLON.
Data set [4] is described as follows: Different enzymes immobilized via SC3 hydrophobin on TEFLON, spectrophotometry at 412 and 435 nm. It counts as biochemical. Particulars: SC3-coated TEFLON; for function after storage: 4° C. in buffer solution. How it is done:
The surface was first coated with SC3 hydrophobin by immersion in the protein aqueous solution (0.3 mg/mL) during approximately 30 minutes. The obtained modified surface was then immersed in an aqueous enzyme solution during approximately 30 minutes. After each step, the TEFLON™ surface was rinsed with an adequate buffer solution. Activity of the immobilized enzymes was followed by spectrophotometry at 412 and 435 nm after immersion of the functionalized surface in the corresponding substrate solution. The optical density of the solution increases after the immersion of the functionalized surface and stays constant after its removal. […] The functionalized TEFLON® was stored at 4° C. in an Eppendorf tube containing a buffer solution.
(Biocatalysts, Wales; final concentration 2.1 mg/mL), lipase from Candida cylindracea (Biocatalysts, Wales; final concentration 0.25 mg/mL), porcine liver esterase (SIGMA; 41 U/mg of solid, final concentration 2.4 mg/mL), bovine pancreas trypsin (SIGMA; 8,750 U/mg of solid).

The conditions of data set [5]: class I: resisting 2% SDS at 100° C., class II: 60% ethanol; cited from earlier work.
For data set [6] the following is noted: cited from earlier work.
The conditions of data set [7]: at 50 μg ml^−1; cited from earlier work.

B1: trypsin: bovine pancreas trypsin, 25 kD (protein)
chain: IVGGYTCGANTVPYQVSLNSGYHFCGGSLINSQWVVSAAHCYKSGIQVRLGEDNINVVEGNEQFISASKSIVHPSYNSNTLNNDIMLIKLKSAASLNSRVASISLPTSCASAGTQCLISGWGNTKSSGTSYPDVLKCLKAPILSDSSCKSAYPGQITSNMFCAGYLEGGKDSCQGDSGGPVVCSGKLQGIVSWGSGCAQKNKPGVYTKVCNYVSWIKQTIASN
For B1, in data set [1], the “catalytic activity of immobilized enzyme” value is “still catalytically active”. Moreover, in data set [2], the “activity and stability of enzyme attached to hydrophobin-coated sheets” value was “active and stable for up to one month”; the “activity of enzyme attached to bare sheets” value is “not active”. Further, the “structural change in CD-spectra upon binding” value in data set [3] was “underwent structural changes”. Moreover, in data set [4], the “state of immobilized enzymes (denaturation, desorption)” value is “not denatured and are not desorbed from the surface”; the function after storage entry is reported as “still functional after several weeks”.

B2: alkaline phosphatase: human placental alkaline phosphatase (Roche) (protein)
chain: IIPVEEENPDFWNREAAEALGAAKKLQPAQTAAKNLIIFLGDGMGVSTVTAARILKGQKKDKLGPEIPLAMDRFPYVALSKTYNVDKHVPDSGATATAYLCGVKGNFQTIGLSAAARFNQCNTTRGNEVISVMNRAKKAGKSVGVVTTTRVQHASPAGTYAHTVNRNWYSDADVPASARQEGCQDIATQLISNMDIDVILGGGRKYMFRMGTPDPEYPDDYSQGGTRLDGKNLVQEWLAKRQGARYVWNRTELMQASLDPSVTHLMGLFEPGDMKYEIHRDSTLDPSLMEMTEAALRLLSRNPRGFFLFVEGGRIDHGHHESRAYRALTETIMFDDAIERAGQLTSEEDTLSLVTADHSHVFSFGGYPLRGSSIFGLAPGKARDRKAYTVLLYGNGPGYVLKDGARPDVTESESGSPEYRQQSAVPLDEETHAGEDVAVFARGPQAHLVHGVQEQTFIAHVMAFAACLEPYTACDLAPPAGTTD
For the molecule B2, the “activity of enzyme attached to bare wells” value is “not active”.

B3: cryparin: class II hydrophobin of Cryphonectria parasitica (protein, UniProt P52753 23-118, looked up)
Class II hydrophobin CRP: GGGGGGSGSGSGSGSGSGSGGGSTTYTACSSTLYSEAQCCATDVLGVADLDCETVPETPTSASSFESICATSGRDAKCCTIPLLGQALLCQDPVGL
For the molecule B3, in data set [5], the “solubility of assembled membranes” value is “readily dissociate in 60% ethanol and in 2% SDS”.

B4: esterase: porcine liver esterase, 60 kD (protein)
chain: GQPASPPVVDTAQGRVLGKYVSLEGLAQPVAVFLGVPFAKPPLGSLRFAPPQPAEPWSFVKNTTSYPPMCCQDPVVEQMTSDLFTNGKERLTLEFSEDCLYLNIYTPADLTKRGRLPVMVWIHGGGLVLGGAPMYDGVVLAAHENVVVVAIQYRLGIWGFFSTGDEHSRGNWGHLDQVAALHWVQENIANFGGDPGSVTIFGESAGGESVSVLVLSPLAKNLFHRAISESGVALTVALVRKDMKAAAKQIAVLAGCKTTTSAVFVHCLRQKSEDELLDLTLKMKFLTLDFHGDQRESHPFLPTVVDGVLLPKMPEEILAEKDFNTVPYIVGINKQEFGWLLPTMMGFPLSEGKLDQKTATSLLWKSYPIANIPEELTPVATDKYLGGTDDPVKKKDLFLDLMGDVVFGVPSVTVARQHRDAGAPTYMYEFQYRPSFSSDKKPKTVIGDHGDEIFSVFGFPLLKGDAPEEEVSLSKTVMKFWANFARSGNPNGEGLPHWPMYDQEEGYLQIGVNTQAAKRLKGEEVAFWNDLLSKEAAKKPPKIKHAEL
B4: the “catalytic activity of immobilized enzyme” value in data set [1] is recorded as “still catalytically active”. In addition, in data set [2], the “activity and stability of enzyme attached to hydrophobin-coated sheets” value is “active and stable for up to one month”; the “activity of enzyme attached to bare sheets” value is “not active”. For the same molecule, the “structural change in CD-spectra upon binding” value in data set [3] was “underwent structural changes”. In data set [4], the “state of immobilized enzymes (denaturation, desorption)” value was “not denatured and are not desorbed from the surface”; the function after storage result is “still functional after several weeks”.

B5: SC3: class I hydrophobin of Schizophyllum commune (protein)
chain: GGHPGTTTPPVTTTVTVTTPPSTTTIAAGGTCTTGSLSCCNQVQSASSSPVTALLGLLGIVLSDLNVLVGISCSPLTVIGVGGSGCSAQTVCCENTQFNGLINIGCTPINIL
Consider B5, for which, in data set [6] (TEFLON (110°) coated with hydrophobin), the “water contact angle of coated TEFLON” value is 48 °. The water contact angle in data set [6] (hydrophilic side of the membrane) was 36 °; in data set [6] (hydrophobic side of the membrane), 110 °. In data set [7], the “maximal lowering of the water surface tension, from 72 to” value is listed as 24 mJ m^−2.

B6: cerato-ulmin: class II hydrophobin of Ophiostoma ulmi (protein, UniProt Q06153 26-100, looked up)
Class II hydrophobin CU: SDSYDPCTGLLQKSPQCCNTDILGVANLDCHGPPSVPTSPSQFQASCVADGGRSARCCTLSLLGLALVCTDPVGI
Regarding B6, the “solubility of assembled membranes” value in data set [5] was “readily dissociate in 60% ethanol and in 2% SDS”.
